Substrate in data set [1]: NC[C@H]1O[C@H](O[C@H]2[C@H](O[C@@H]3O[C@H](CO)[C@@H](O)[C@H]3O)[C@@H](O)[C@H](N)C[C@@H]2N)[C@H](N)[C@@H](O)[C@@H]1O
Nature of the data set: purified protein. The settings on record: 100 µM MgATP, Tris buffer pH 7.5, 25 °C.

Substrate in data set [2]: NC[C@H]1O[C@H](O[C@H]2[C@H](O)[C@@H](O[C@H]3O[C@H](CO)[C@@H](O)[C@H](N)[C@H]3O)[C@H](N)C[C@@H]2N)[C@H](N)[C@@H](O)[C@@H]1O
Nature of the data set: purified protein. The settings on record: 100 µM MgATP, Tris buffer pH 7.5, 25 °C.

Substrate in data set [3]: NC[C@@H]1O[C@H](O[C@H]2[C@@H](O)[C@H](O[C@@H]3[C@@H](O)[C@H](N)C[C@H](N)[C@H]3O[C@H]3O[C@H](CN)[C@@H](O)[C@H](O)[C@H]3N)O[C@@H]2CO)[C@H](N)[C@@H](O)[C@@H]1O
Nature of the data set: purified protein. To be noted: 100 µM MgATP, Tris buffer pH 7.5, 25 °C.

Substrate in data set [4]: NC[C@@H]1O[C@H](O[C@H]2[C@@H](O)[C@H](O[C@@H]3[C@@H](O)[C@H](N)C[C@H](N)[C@H]3O[C@H]3O[C@H](CO)[C@@H](O)[C@H](O)[C@H]3N)O[C@@H]2CO)[C@H](N)[C@@H](O)[C@@H]1O
As to the kind of experiment: purified protein. The settings on record: 100 µM MgATP, Tris buffer pH 7.5, 25 °C.

Substrate in data set [5]: NC[C@H]1O[C@H](O[C@H]2[C@H](O)[C@@H](O[C@H]3O[C@H](CO)[C@@H](O)[C@H](N)[C@H]3O)[C@H](N)C[C@@H]2N)[C@H](O)[C@@H](O)[C@@H]1O
As to the kind of experiment: purified protein. The settings on record: 100 µM MgATP, Tris buffer pH 7.5, 25 °C.

Substrate in data set [6]: Nc1nc2c(ncn2[C@@H]2O[C@H](COP(=O)(O)OP(=O)(O)OP(=O)(O)O)[C@@H](O)[C@H]2O)c(=O)[nH]1
Nature of the data set: steady-state kinetics. The data set is classed as biochemical, Pseudomonas aeruginosa. The settings on record: 100 µM kanamycin A, Tris buffer pH 7.5, Mg2+, 25 °C.

Substrate in data set [7]: Nc1ncnc2c1ncn2[C@@H]1O[C@H](COP(=O)(O)OP(=O)(O)OP(=O)(O)O)[C@@H](O)[C@H]1O
As to the kind of experiment: steady-state kinetics. The data set is classed as biochemical, Pseudomonas aeruginosa. The settings on record: 100 µM kanamycin A, Tris buffer pH 7.5, Mg2+, 25 °C.

B1: APH(3’)-IIb WT (Pseudomonas aeruginosa PAO1) (protein)
chain: MHDAATSMPPQAPSTWADYLAGYRWRGQGEGCSAATVHRLEAARRPTLFVKQEVLSAHAELPAEIARLRWLHGAGIDCPQVLNETQSDGRQWLLMSAVPGDTLSALAQRGELEPERLVRLVAAALRRLHDLDPAACPFDHRLERRLDTVRQRVEAGLVDEADFDDDHRGRSATELYRLLLDRRPAVEDLVVAHGDACLPNLLAEGRRFSGFIDCGRLGVADRHQDLALAARDIEAELGAAWAEAFLVEYGGDIDGERLAYFRLLDEFF
In general, Km refers to the concentration of substrate that gives half-maximal velocity. As usually defined, the kcat is the number of substrate molecules converted per active site and unit of time at saturation. Take B1: the Km was determined as 1.17 ± 0.26 µM in “purified protein [1]”; 0.19 ± 0.07 µM in “purified protein [2]”; 0.27 ± 0.10 µM in “purified protein [3]”; 0.50 ± 0.10 µM in “purified protein [4]”; 0.21 ± 0.10 µM in “purified protein [5]”; 320 µM in “steady-state kinetics [6]”. In addition, the Km in “steady-state kinetics [7]” is reported as 3 µM. The kcat in “purified protein [2]” worked out at 2.13 ± 0.20 s⁻¹; in “purified protein [3]”, 1.98 ± 0.17 s⁻¹; in the data set “purified protein [4]”, 2.64 ± 0.14 s⁻¹; in “purified protein [5]”, 0.58 ± 0.04 s⁻¹; in the data set “steady-state kinetics [6]”, 0.41 s⁻¹; in the data set “steady-state kinetics [7]” it was 0.38 s⁻¹.
